From the RNAGym collection of RNA variant scans (doi:10.1021/acssynbio.7b00057)

B1: Pistol ribozyme (parent)
chain: GGGUCGUUGUUCCAUAAUCGCGUGGAUAUGGCACGCAAGUUUCUACCGGGCACCGUAAAUGUCCGACUGGAGCCGUUCGGGCGGCUAUAAACAGACCUCAGGCCCGAAGCGUGGCGGCACCUGCCGCCGGUGGUAAAAAAGAUCGGAAGAGCACACGUCU

Variants of: B1
Test: aptazyme ON/OFF ratio, guanine; higher = stronger switching; co-transcriptional cleavage with and without guanine

| Variant | aptazyme ON/OFF ratio |
| --- | --- |
| U7C U8C G9A U10C U11C C12G C13A | 1.5 |
| U7C U8C G9A U10C U11C C12G C13U | 1.29 |
| U7C U8C G9A U10C U11C C12G C13G | 1.24 |
| U7C U8C G9C C12U C13U | 1.14 |
| U7C U8C G9C C12U C13G | 1.11 |
| U7C U8C G9C C12U C13A | 1.16 |
| U7C U8C G9A U10C U11G C12U | 1.21 |
| U7C U8C G9A U10C U11G C12G | 1.36 |
| U7C U8C G9A U10C U11G C12A | 1.26 |
| U7C U8C G9C U10A U11C C12G C13U | 1.2 |
| U7C U8C G9C U10A U11C C12G C13A | 1.21 |
| U7C U8C G9C U10A U11C C12G C13G | 1.15 |
| U7C U8C G9A U10G C12U | 1.46 |
| U7C U8C G9A U10G C12A | 1.21 |
| U7C U8C G9A U10G C12G | 1.22 |
| U7C U8C G9A U10C U11A C12G | 1.23 |
| U7C U8C G9A U10C U11A C12A | 1.51 |
| U7C U8C G9A U10C U11A C12U | 1.22 |
| U7C U8C G9C U10A U11G C13U | 1.17 |
| U7C U8C G9C U10A U11G C13G | 1.14 |
| U7C U8C G9C U10A U11G C13A | 1.13 |

| Variant | aptazyme ON/OFF ratio |
| --- | --- |
| U7C U8C G9A U10G U11C C12U C13A | 1.29 |
| U7C U8C G9A U10G U11C C12U C13U | 1.26 |
| U7C U8C G9A U10G U11C C12U C13G | 1.18 |
| U7C U8C G9A U11C C13A | 1.22 |
| U7C U8C G9A U11C C13G | 1.05 |
| U7C U8C G9A U11C C13U | 1.29 |
| U7C U8C G9C U10A U11G C12A | 1.16 |
| U7C U8C G9C U10A U11G C12U | 1.05 |
| U7C U8C G9C U10A U11G C12G | 1.14 |
| U7C U8C G9A U10G C12A C13A | 1.13 |
| U7C U8C G9A U10G C12A C13G | 1.09 |
| U7C U8C G9A U10G C12A C13U | 1.06 |
| U7C U8C G9A U10C U11A C12G C13U | 1.13 |
| U7C U8C G9A U10C U11A C12G C13G | 1.19 |
| U7C U8C G9A U10C U11A C12G C13A | 1.26 |
| U7C U8C G9A U10A U11C C12U | 1.2 |
| U7C U8C G9A U10A U11C C12A | 1.37 |
| U7C U8C G9A U10A U11C C12G | 1.23 |
| U7C U8C G9A U10A U11A C12U C13U | 1.11 |
| U7C U8C G9A U10C U11G C12G C13A | 1.23 |
| U7C U8C G9A U10C U11G C12G C13U | 1.17 |

| Variant | aptazyme ON/OFF ratio |
| --- | --- |
| U7C U8C G9A U10C U11G C12G C13G | 1.41 |
| U7C U8C G9A U11C C12G C13A | 1.34 |
| U7C U8C G9A U11C C12G C13U | 1.23 |
| U7C U8C G9A U11C C12G C13G | 1.29 |
| U7C U8C G9A U10A U11C | 1.21 |
| U7C U8C G9A U10A U11G | 1.55 |
| U7C U8C G9C U10C U11C C12U | 1.06 |
| U7C U8C G9C U10C U11C C12A | 1.04 |
| U7C U8C G9C U10C U11C C12G | 1.13 |
| U7C U8C G9A U10G U11G C12U C13A | 1.1 |
| U7C U8C G9A U10G U11G C12U C13G | 1.11 |
| U7C U8C G9A U10G U11G C12U C13U | 1.14 |
| U7C U8C G9A U10G U11A C12A C13A | 1.17 |
| U7C U8C G9A U10G U11A C12A C13G | 1.2 |
| U7C U8C G9A U10G U11A C12A C13U | 1.16 |
| U7C U8C G9C U10A U11G C12G C13G | 1.12 |
| U7C U8C G9C U10A U11G C12G C13A | 1.15 |
| U7C U8C G9C U10A U11G C12G C13U | 1.1 |
| U7C U8C G9A U10C U11G C12A C13A | 1.28 |
| U7C U8C G9A U10C U11G C12A C13U | 1.52 |
| U7C U8C G9A U10C U11G C12A C13G | 1.16 |

| Variant | aptazyme ON/OFF ratio |
| --- | --- |
| U7C U8C G9A U10A U11A C13A | 1.18 |
| U7C U8C G9A U10A U11A C13U | 1.25 |
| U7C U8C G9A U10A U11A C13G | 1.2 |
| U7C U8C G9A U10G U11A C13U | 1.07 |
| U7C U8C G9A U10G U11A C13A | 1.1 |
| U7C U8C G9A U10G U11A C13G | 1.25 |
| U7C U8C G9C U10A U11A C12A C13A | 1.09 |
| U7C U8C G9C U10A U11A C12A C13U | 1.13 |
| U7C U8C G9C U10A U11A C12A C13G | 1.03 |
| U7C U8C G9C U10A U11A C12G C13U | 1.09 |
| U7C U8C G9C U10A U11A C12G C13G | 1.19 |
| U7C U8C G9C U10A U11A C12G C13A | 1.11 |
| U7C U8C G9C U10C U11A C12U | 1.02 |
| U7C U8C G9C U10C U11A C12G | 1.11 |
| U7C U8C G9C U10C U11A C12A | 1.12 |
| U7C U8C G9C U10A U11A C12U C13U | 1.17 |
| U7C U8C G9C U10A U11A C12U C13G | 1.2 |
| U7C U8C G9C U10A U11A C12U C13A | 1.03 |
| U7C U8C G9A U10A U11G C12A C13G | 1.09 |
| U7C U8C G9A U10A U11G C12A C13U | 1.16 |
| U7C U8C G9A U10A U11G C12A C13A | 1.09 |
